Data published in paper PMC4894640.

Target: F-actin (polymerized non-muscle actin) (UniProt P60709)
Assay: co-sedimentation; as the F-actin co-sedimentation, with in vitro synthesized HA-RAB-10(Q68L) (control: HA-only) added to the mixture

increase of co-sedimentation with HA-RAB-10(Q68L) against without: 67%
Substance: GST-EHBP-1(260-901aa) (domain or fragment)
